The text below walks through data of patent publication US20070009972A1, “Epidermal growth factor receptor polypeptides and antibodies” (priority 2005, published 2007).

The target in one assay is T1, EGFR (Homo sapiens, UniProt P00533).
T1 construct: tested them in a model HMEC cell system; endogenous in cells; host or cells: 184A1 human mammary epithelial cells (HMECs)
The experiment in a line: Cyclic polypeptide inhibition of EGFR phosphorylation in model HMEC cell system. In kind it is cell-based. The conditions noted are these: biotinylated cyclic polypeptide. The source says:
We selected amino acid sequences corresponding to fragments of Domain II and Domain IV of EGFR. The sequence of each polypeptide is shown in the first column of Table 1. The polypeptides were chosen based on their positions on the crystal structures of monomeric and dimeric EGFR (Burgess et al., Mol. Cell 12:541-552, 2003). Although Domain IV of EGFR is not resolved in the dimer crystal structure, it is believed that portions of Domain IV come into contact upon dimerization. […] We generated biotinylated cyclic polypeptides that included each sequence and tested them in a model HMEC cell system. The sequences of the biotinylated cyclic polypeptides are shown in the third column of Table 1. […] For the LYNPTTYQMD polypeptide, the different results obtained from polypeptide and polyclonal antisera inhibition could be due to differences in the quantitative details of the assays, or the polypeptide could have a lower affinity for the receptor than the polyclonal antisera does.

In assay [1] the target is T2, Biotin-Aha-CMGENNTG-CONH2 (SEQ ID NO:10) (also: called cyclic, ring not described).
T2 construct: also called EGFR Domain IV (576-581) peptide
T2 peptide: {Biotin-Ahx}-CMGENNTG-NH2
The experiment in a line: yeast surface display screen of naive human library against the peptide (1 round MACS, 3 rounds FACS); clone isolated as specific binder.

Assay [2] concerns the target T3, Biotin-GCAHYIDGPHCG-CONH2 (SEQ ID NO:9) (not fully specified (bridges); printed as Biotin-GCAHYIDGPHCG-; also: cyclic (type of ring not given here)).
T3 construct: Biotinylated cyclic polypeptide; also called EGFR Domain IV (558-567) peptide
T3 peptide: Biotin-GCAHYIDGPHCG-NH2
Described as above.

For assay [3], the target named is T4, Biotin-GCRNVSRGRECG-CONH2 (SEQ ID NO:8) (not fully specified (bridges); printed as Biotin-GCRNVSRGRECG-; also: cyclic (ring type and places not given here)).
T4 construct: Biotinylated cyclic polypeptide; also called EGFR Domain IV (502-511) peptide
T4 peptide: Biotin-GCRNVSRGRECG-NH2
The description is as above.

Assay [4] deals with T5, Biotin-GCGLYNPTTYQMDGCG-CONH2 (SEQ ID NO:7) (not fully specified (bridges); printed as Biotin-GCGLYNPTTYQMDGCG-; also: cyclic (type of ring not given here)).
T5 construct: Biotinylated cyclic polypeptide tested on HMECs; also called EGFR Domain II (245-254) peptide
T5 peptide: Biotin-GCGLYNPTTYQMDGCG-NH2
The assay is described as above.

The target of assay [5] is T6, Biotin-GCLVWKYADAGCG-CONH2 (SEQ ID NO:11) (not fully specified (bridges); printed as Biotin-GCLVWKYADAGCG-; also: cyclic (ring type and places not given here)).
T6 construct: Biotinylated cyclic polypeptide; also called EGFR Domain IV (582-590) peptide
T6 peptide: Biotin-GCLVWKYADAGCG-NH2
The assay is described as above.

Where a chain is given by its changes, count along the chain named. *: point of attachment. Biotin = O=C1N[C@H]2[C@H](CS[C@H]2CCCCC(=O)*)N1; Ahx = NCCCCCC(=O)O

With CAHYIDGPHC [Biotin-GCAHYIDGPHCG-CONH2], the “Peptide Inhibition” value on EGFR is “Yes”.

In the case of CRNVSRGREC [Biotin-GCRNVSRGRECG-CONH2], the “Peptide Inhibition” value at EGFR is given as “Yes”.

For the molecule LVWKYADAG [Biotin-GCLVWKYADAGCG-CONH2], the “Peptide Inhibition” value on EGFR was “Yes”.

Consider “LYNPTTYQMD [Biotin-GCGLYNPTTYQMDGCG-CONH2]”, for which the “Peptide Inhibition” value at EGFR is on record as “No”.

B1: SEQ ID NO 37 (other)
VH: QVQLQESGPGLVKPSETLSLTCTVSGGSISNSDYYWGWIRQPPGKGLRWIGSINYYGTTYYNPSLKSRVAMSVDTSKNQFSLKLSSVTAADTAVYYCARRGANSWFFDLWGRGTLVTVSSGILGSGGGSGGGGSGGGGLQEF
notes: also called VH clone isolated against MGENNT
For B1, the binding result in assay [1] was “binds”.

B2: SEQ ID NO 27 (scFv)
scFv: QITLKESGPTLVKPTQTLTLTCTFSGFSLSTNGVGVGWIRQPPGKALEWLALIYWNDDKRYSPSLKRRLTITKDTSKNQVVLTMTNMDPVDTATYYCAHRLLDSGYILPPTFDYWGQGTLVTVSSGILGSGGGGSGGGGSGGGGSEIVLTQSPGTLSLSPGERATLSCRASQSVNSGYLAWYQQKPGQAPRLLISAASSRATGIPDRFSGSGSGTDFTLTISRLEPEDFAVYYCQRYDTSRGFTFGPGTKVDIKSGF
Regarding B2, the binding result in assay [2] is reported as “binds”.

B3: SEQ ID NO 36 (other)
VH: QVQLQESGPGLVKPSETLSLTCTFSGGSIRSSSDYWGWVRQPPGKGLEWIGSISSSGSTYYNPSLKSRVTISVDTSRNQFSLRLSSVTAADTAIYYCARYNHYWYFDLWGRGTLVTVSSGILGSGGGSGGGGSGGGGSKRHSRSLQHSSQRLQETKSTSPAKPAKTLMMI
notes: as for B1
Take B3: in assay [1], the binding result is recorded as “binds”.

B4: SEQ ID NO 21 (other)
VH: QVQLQQWGPGLLKPSETLSLTCGVSGGSLSGYYWSWIRQSPGKELEWIGEINQGGSTNYNPSLRSRVTISVDTSKKQLSLKVNSVTASDTAVYYCARETFRGSNCFDSWGQGTLVTVSSGILGSGGGIGGGGSGGGGLQEF
With B4, the binding result in assay [3] is given as “binds”.

B5: SEQ ID NO 18 (other)
VH: QVQLVQSEGGVVQPGRSLRLSCAASGFTFSSYAMHWVRQAPGKGLEWVAVISYDGSNKYYADSVKGRFTISRDNSKNTLYLQMNSLRAEDTAVYYCARDEGYYGSGCIDYWGQGTLVTVSSGILGSGGGSGGGGSGGGGLQEF
Regarding B5, in assay [4], the binding result is recorded as “binds”.

B6: SEQ ID NO 28 (scFv)
scFv: QVQLQQSGPGLVKPSQTLSLTCAISGDSVSSNSAAWNWIRQSPSRGLEWLGRTYYRSKWYNEYAVSVKSRITINPDTSKNHFSLQLNSVTPEDTAVYYCAREIVGTPFDYWGQGTLVTVSSGILGSGGGGSGGGGSGGGGSDIRVTQSPSSLSASVGDRVTITCRTSQSASKYVNWYQQKPGKVPKLLIYAASSLQSGVPSRFSGSGSGTHFTLSISNLQPGDMGTYYCQQGYGTPLTFGGGTKLEIKSGF
For the molecule B6, the binding result in assay [2] is “binds”.

B7: SEQ ID NO 20 (other)
VH: QVQLQQSGPGLVKPSQTLSLTCDISGDSVSSDSAAWNWIRLSPSRGLEWLGRTYYWSKWYTDYAVSVKSRITINPDTSKNQFSLQLNSVTPEDTAVYFCARERYCSSTSCYLDAFDIWGQGTMVTVSGILGSGGGGSGGGGSGGGGLQEF
As for B7, the binding result in assay [3] is on record as “binds”.

B8: SEQ ID NO 35 (scFv)
scFv: QVQLVESEGRLVKPGGSLRLSCVASGMTFNNAWMSWVRQAPGKGLEWVGRIRSESNGGTTDYAAPGKGRFTISRDDSKNTLYLQMNSLQIEDTAVYYCATDRGYSNSGNYYRHYWGQGTLVTVSSGILGSGGGGSGGGGSGGGGSDIRLTQSPSSLSASVGDRVTITCQASQDISNYLNWYQQKPGKAPKLLIYDASNLETGVPPRFSGSGSGTAFTFTISSLQPEDFATYYCQQYDNLPHTFGPGTKVDIKSGILEQKLISEEDL
For the molecule B8, in assay [2], the binding result is listed as “binds”.

B9: SEQ ID NO 19 (other)
VH: QVQLVQSEGGVVQPGRSLRLSCAAPGFTFSSYAMHWVRQAPGKGLEWVAVISYDGSNKYYADSVKGRFTISRDNSKNTLYLQMNSLRAEDTAVYYCARDEGYYGSGCIDYWGQGTLVTVSSGILGSGGGGSGGGGSGGGGLQEF
In the case of B9, the binding result in assay [4] was “binds”.

B10: SEQ ID NO 38 (other)
VH: QITLKESGPTVVKPTQTLTLTCTFSGFSLSTSGVGVGWIRQPPGKALEWLALISWDDDKRYSPSLKSRLTITKDTSKNQVVLTMTNMDPVDTATYFCAHLNNFVDAIELRTGWCFDVWGRGTLVTVSGILGSGGGGSGGGGSGGGVLKLC
Consider B10, for which, in assay [5], the binding result is reported as “binds”.

B11: SEQ ID NO 39 (other)
VH: B10 VH with N101I, C150R
B11: in assay [5], the binding result is “binds”.
